Earlier results as cited in patent US20050074809A1, “System and method for systematic prediction of ligand/receptor activity” (priority 2001, published 2005).

How the values were obtained:
HLA-DRB1*0101 molecule = HLA-DRB1*0101 molecule (Homo sapiens, UniProt P01903+P01911, A100R/D57E/F55L/F60I/F76Y/I96L/L162R/M171V/P40L/Q125E/R42F/V115G/Y59C); settings: result in words; reported binding data
HLA-A*0201 molecule = HLA-A*0201 molecule (Homo sapiens, UniProt P04439, D140Y/D185E/D98H/E176V/E277Q/G131W/G231S/I119V/I121R/I166T/I218V/L300P/L318F/N151K/N90K/P208A/P217A/Q86G/Q94H/R138H/R169H/T345S); settings: result in words; Kawakami and Rosenberg 1996

Sequence | binding to HLA-DR1(0101) (HLA-DRB1*0101) (HLA-DRB1*0101 molecule) | binding to HLA-A*0201 (HLA-A*0201 molecule)
FAGKNTDLE | does not bind | –
PKPPKPVSKMRMATPLLMQALPMG [Peptide of class II invariant chain (SwissProt Acc. P04233)] | binds | –
PLWGPRALV [Peptide of the mage-3 antigen (SWISSPROT:MAG3_HUMAN)] | – | binds
